Measurements taken from patent publication US20220025069A1 (Hoffmann-La Roche, published 2022).
Where two headings read alike, the source gives them in different places.

How the values were obtained:
[1] = molecular target: T1, human 4-1BB (CD137), cell-surface-expressed on Jurkat-hu4-1BB-NFkB-luc2 reporter cell line (human, UniProt Q07011 24-186); experiment: cell-based or functional assay; set-up: AUC of activation curve, NFκB-luciferase in Jurkat-hu4-1BB-NFκB-luc2, crosslinking by WM-266-4 cells: unit not given beside the values
[2] = molecular target: T2, human Fibroblast Activation Protein (FAP), cell-surface-expressed on NIH/3T3-huFAP clone 19 cells (human, UniProt Q12884 1-760); experiment: flow cytometry, NIH/3T3-huFAP clone 19 cells, gMFI curve
T2 construct: also called FAP-expressing cells
Experimental: (§1) Plates were incubated for 30 minutes at 4° C. and washed once with 200 μL, 4° C. cold DPBS buffer. […] Cells were washed twice with 200 μL 4° C. DPBS buffer and then resuspended in 50 μL/well DPBS containing 1% Formaldehyde for fixation. The same or the next day cells were resuspended in 100 μL FACS-buffer and acquired using MACSQuant Analyzer 10 (Miltenyi Biotec) or Canto II (BD).

[3] = molecular target: T1, human 4-1BB (CD137), …; experiment: flow cytometry, Jurkat-hu4-1BB-NFkB-luc2 cells, gMFI curve
Experimental: (§2) For binding to cell-surface-expressed human 4-1BB (CD137) Jurkat-hu4-1BB-NFκB-luc2 reporter cell line (Promega, Germany) was used. […] Plates were incubated for 30 minutes at 4° C. and washed once with 200 μL 4° C. cold DPBS buffer. […] Cells were washed twice with 200 μL 4° C. FACS buffer and then resuspended in 50 μL/well DPBS containing 1% Formaldehyde for fixation. The same or the next day cells were resuspended in 100 μL FACS-buffer and acquired using MACSQuant Analyzer 10 (Miltenyi Biotec) or Cantoll (BD).

[4] = molecular target: T2, human Fibroblast Activation Protein …; experiment: flow cytometry, NIH/3T3-huFAP clone 19 cells, PE anti-human Fc detection
Experimental: as §1

[5] = molecular target: T1, human 4-1BB (CD137), …; experiment: cell-based or functional assay
[6] = molecular target: T1, human 4-1BB (CD137), …; experiment: flow cytometry, Jurkat-hu4-1BB-NFkB-luc2 cells, PE anti-human Fc detection
Experimental: as §2

[7] = molecular target: T1, human 4-1BB (CD137), …; experiment: cell-based or functional assay; remark: listed apart in the source
[8] = molecular target: T1, human 4-1BB (CD137), …; experiment: cell-based or functional assay; set-up: unit not given beside the values
[9] = molecular target: T1, human 4-1BB (CD137), …; experiment: flow cytometry, Jurkat-hu4-1BB-NFkB-luc2 cells, gMFI curve; remark: listed apart in the source
Experimental: (§3) For binding to cell-surface-expressed human 4-1BB (CD137) Jurkat-hu4-1BB-NFkB-luc2 reporter cell line (Promega, Germany) was used. […] Plates were incubated for 30 minutes at 4° C. and washed once with 200 μL 4° C. cold DPBS buffer. […] Cells were washed twice with 200 μL 4° C. FACS buffer and then resuspended in 50 DPBS containing 1% Formaldehyde for fixation.

[10] = molecular target: T1, human 4-1BB (CD137), …; experiment: flow cytometry, Jurkat-hu4-1BB-NFkB-luc2 cells, PE anti-human Fc detection; remark: listed apart in the source
Experimental: as §3

Row | AUC of activation curve, NFκB-luciferase in Jurkat-hu4-1BB-NFκB-luc2, crosslinking by NIH/3T3-huFAP clone 19 cells [1] | AUC of activation curve, NFκB-luciferase in Jurkat-hu4-1BB-NFκB-luc2, crosslinking by WM-266-4 cells [1] | Area under the curve (AUC) of binding curve [2] | Area under the curve (AUC) of binding curve [3] | EC50 [4] [nM] | EC50 of activation curve, NFκB-luciferase in Jurkat-hu4-1BB-NFκB-luc2, crosslinking by NIH/3T3-huFAP clone 19 cells [5] [nM] | EC50 of activation curve, NFκB-luciferase in Jurkat-hu4-1BB-NFκB-luc2, crosslinking by WM-266-4 cells [5] [nM] | EC50 [6] [nM] | EC50 of activation curve, NFκB-luciferase in Jurkat-hu4-1BB-NFκB-luc2, crosslinking by KPL4 cells [7] [nM] | EC50 of activation curve, NFκB-luciferase in Jurkat-hu4-1BB-NFκB-luc2, crosslinking by NCI-N87 cells [7] [nM] | EC50 of activation curve, NFκB-luciferase in Jurkat-hu4-1BB-NFκB-luc2, crosslinking by SK-Br3 cells [7] [nM] | AUC of activation curve, NFκB-luciferase in Jurkat-hu4-1BB-NFκB-luc2, crosslinking by KPL4 cells [8] | AUC of activation curve, NFκB-luciferase in Jurkat-hu4-1BB-NFκB-luc2, crosslinking by NCI-N87 cells [8] | AUC of activation curve, NFκB-luciferase in Jurkat-hu4-1BB-NFκB-luc2, crosslinking by SK-Br3 cells [8] | Area under the curve (AUC) of binding curve [9] | EC50 [10] [nM] | Binder
1 | 521 | 384 | 30400 | 75 | 1.59 |  |  |  |  |  |  |  |  |  |  |  | FAP (4B9) huIgG1 PG LALA antibody (antibody, V domains shown, the control is a human IgG1 with P329G, L234A, L235A (PG LALA)) VH: EVQLLESGGGLVQPGGSLRLSCAASGFTFSSYAMSWVRQAPGKGLEWVSAIIGSGASTYYADSVKGRFTISRDNSKNTLYLQMNSLRAEDTAVYYCAKGWFGGFNYWGQGTLVTVSS VL: EIVLTQSPGTLSLSPGERATLSCRASQSVTSSYLAWYQQKPGQAPRLLINVGSRRATGIPDRFSGSGSGTDFTLTISRLEPEDFAVYYCQQGIMLPPTFGQGTKVEIK
2 | 93200 | 37400 | 32500 | 681 | 2.88 | 0.02 | 0.07 | 2.39 |  |  |  |  |  |  |  |  | bispecific, monovalent 1+2 anti-FAP, anti-4-1BB lipocalin huIgG1 PGLALA antigen binding molecule (bispecific antibody, also called FAP (4B9) x 4-1BB lipocalin huIgG1 PG LALA 1+2; 1+2 FAP(4B9) x 4-1BB lipocalin huIgG1 PGLALA) heavy 1: DKTHTCPPCPAPEAAGGPSVFLFPPKPKDTLMISRTPEVTCVVVDVSHEDPEVKFNWYVDGVEVHNAKTKPREEQYNSTYRVVSVLTVLHQDWLNGKEYKCKVSNKALGAPIEKTISKAKGQPREPQVCTLPPSRDELTKNQVSLSCAVKGFYPSDIAVEWESNGQPENNYKTTPPVLDSDGSFFLVSKLTVDKSRWQQGNVFSCSVMHEALHNHYTQKSLSLSPGGGGGSGGGGSGGGGSQDSTSDLIPAPPLSKVPLQQNFQDNQFHGKWYVVGQAGNIRLREDKDPIKMMATIYELKEDKSYDVTMVKFDDKKCMYDIWTFVPGSQPGEFTLGKIKSFPGHTSSLVRVVSTNYNQHAMVFFKFVFQNREEFYITLYGRTKELTSELKENFIRFSKSLGLPENHIVFPVPIDQCIDG heavy 2: not shown light: EIVLTQSPGTLSLSPGERATLSCRASQSVTSSYLAWYQQKPGQAPRLLINVGSRRATGIPDRFSGSGSGTDFTLTISRLEPEDFAVYYCQQGIMLPPTFGQGTKVEIKRTVAAPSVFIFPPSDEQLKSGTASVVCLLNNFYPREAKVQWKVDNALQSGNSQESVTEQDSKDSTYSLSSTLTLSKADYEKHKVYACEVTHQGLSSPVTKSFNRGEC
3 | 55200 | 11700 | 21000 | 694 | 1.19 | 0.12 | 0.02 | 1.72 |  |  |  |  |  |  |  |  | 2+2 FAP(4B9) x 4-1BB lipocalin huIgG4 SP molecule (bispecific antibody, Comparison molecule; also called FAP (4B9) x 4-1BB lipocalin huIgG4 SP 2+2; FAP (4B9) anti-4-1BB lipocalin huIgG4 SP 2+2) heavy: not shown light: EIVLTQSPGTLSLSPGERATLSCRASQSVTSSYLAWYQQKPGQAPRLLINVGSRRATGIPDRFSGSGSGTDFTLTISRLEPEDFAVYYCQQGIMLPPTFGQGTKVEIKRTVAAPSVFIFPPSDEQLKSGTASVVCLLNNFYPREAKVQWKVDNALQSGNSQESVTEQDSKDSTYSLSSTLTLSKADYEKHKVYACEVTHQGLSSPVTKSFNRGEC
4 | 65500 | 20400 | 28800 | 746 | 2.01 | 0.04 | 0.02 | 2.09 |  |  |  |  |  |  |  |  | bispecific, bivalent 2+2 anti-FAP, anti-4-1BB lipocalin huIgG1 PGLALA antigen binding molecule (bispecific antibody, also called FAP (4B9) x 4-1BB lipocalin huIgG1 PG LALA 2+2; 2+2 FAP(4B9) x 4-1BB lipocalin huIgG1 PGLALA) heavy: not shown light: EIVLTQSPGTLSLSPGERATLSCRASQSVTSSYLAWYQQKPGQAPRLLINVGSRRATGIPDRFSGSGSGTDFTLTISRLEPEDFAVYYCQQGIMLPPTFGQGTKVEIKRTVAAPSVFIFPPSDEQLKSGTASVVCLLNNFYPREAKVQWKVDNALQSGNSQESVTEQDSKDSTYSLSSTLTLSKADYEKHKVYACEVTHQGLSSPVTKSFNRGEC
5 |  |  |  |  |  |  |  |  | 0.19 | 0.15 | 0.33 | 11400 | 12100 | 3960 | 2100 | 6.95 | bispecific, monovalent 1+2 anti-HER2, anti-4-1BB lipocalin huIgG1 PGLALA antigen binding molecule (bispecific antibody, also called HER2 (TRAS) x 4-1BB lipocalin huIgG1 PG LALA 1+2; 1+2 HER2 x 4-1BB lipocalin huIgG1 PGLALA) heavy 1: DKTHTCPPCPAPEAAGGPSVFLFPPKPKDTLMISRTPEVTCVVVDVSHEDPEVKFNWYVDGVEVHNAKTKPREEQYNSTYRVVSVLTVLHQDWLNGKEYKCKVSNKALGAPIEKTISKAKGQPREPQVCTLPPSRDELTKNQVSLSCAVKGFYPSDIAVEWESNGQPENNYKTTPPVLDSDGSFFLVSKLTVDKSRWQQGNVFSCSVMHEALHNHYTQKSLSLSPGGGGGSGGGGSGGGGSQDSTSDLIPAPPLSKVPLQQNFQDNQFHGKWYVVGQAGNIRLREDKDPIKMMATIYELKEDKSYDVTMVKFDDKKCMYDIWTFVPGSQPGEFTLGKIKSFPGHTSSLVRVVSTNYNQHAMVFFKFVFQNREEFYITLYGRTKELTSELKENFIRFSKSLGLPENHIVFPVPIDQCIDG heavy 2: not shown light: not shown
